According to PMC12086086:

Columns and labels:
[1] = γH2AX, 53BP1, RPA immunofluorescence foci; settings: glycan lost; control: parental PANC-1
LIVE/DEAD staining = settings: glycan lost; control: parental PANC-1
LC/MS = settings: glycan lost; control: parental PANC-1
Western blot and qPCR = settings: glycan lost; control: parental PANC-1
[2] = XTT viability, 3-day gemcitabine; settings: glycan lost; control: parental PANC-1
blot = settings: glycan lost; control: wild-type RRM1
soft agar colony assay = settings: glycan lost; control: parental PANC-1
[3] = low-attachment sphere assay; settings: glycan lost; control: parental PANC-1
[4] = nocodazole release, PI flow cytometry; settings: glycan lost; control: parental PANC-1

B1: ribonucleotide reductase large subunit M1 (RRM1): RRM1-T734A (protein)
parent chain: MHVIKRDGRQERVMFDKITSRIQKLCYGLNMDFVDPAQITMKVIQGLYSGVTTVELDTLAAETAATLTTKHPDYAILAARIAVSNLHKETKKVFSDVMEDLYNYINPHNGKHSPMVAKSTLDIVLANKDRLNSAIIYDRDFSYNYFGFKTLERSYLLKINGKVAERPQHMLMRVSVGIHKEDIDAAIETYNLLSERWFTHASPTLFNAGTNRPQLSSCFLLSMKDDSIEGIYDTLKQCALISKSAGGIGVAVSCIRATGSYIAGTNGNSNGLVPMLRVYNNTARYVDQGGNKRPGAFAIYLEPWHLDIFEFLDLKKNTGKEEQRARDLFFALWIPDLFMKRVETNQDWSLMCPNECPGLDEVWGEEFEKLYASYEKQGRVRKVVKAQQLWYAIIESQTETGTPYMLYKDSCNRKSNQQNLGTIKCSNLCTEIVEYTSKDEVAVCNLASLALNMYVTSEHTYDFKKLAEVTKVVVRNLNKIIDINYYPVPEACLSNKRHRPIGIGVQGLADAFILMRYPFESAEAQLLNKQIFETIYYGALEASCDLAKEQGPYETYEGSPVSKGILQYDMWNVTPTDLWDWKVLKEKIAKYGIRNSLLIAPMPTASTAQILGNNESIEPYTSNIYTRRVLSGEFQIVNPHLLKDLTERGLWHEEMKNQIIACNGSIQSIPEIPDDLKQLYKTVWEISQKTVLKMAAERGAFIDQSQSLNIHIAEPNYGKLTSMHFYGWKQGLKTGMYYLRTRPAANPIQFTLNKEKLKDKEKVSKEEEEKERNTAAMVCSLENRDECLMCGS
other: DNA damage and replication stress foci [1]: increases
other: cell death (LIVE/DEAD staining): no change
other: cellular NTP pools (LC/MS): decreases
other: thymidine phosphorylase (TP) expression (Western blot and qPCR): decreases
other: gemcitabine sensitivity [2]: increases
other: RRM1 serine/threonine phosphorylation (blot): decreases
other: colony formation (soft agar colony assay): decreases
other: sphere formation [3]: decreases
other: S-phase duration [4]: increases
